# In patent publication US20170037117A1 (SALK INSTITUTE FOR BIOLOGICAL STUDIES, published 2017):
# Ends that are not written are not given here.
# T1: human α-CGRP 1-37 (WT) (human, not fully specified; C-terminal amide; N-terminal biotin when captured on the chip; 125I label in the radioligand assay)
# T1 construct: also called α-human
# T1 peptide: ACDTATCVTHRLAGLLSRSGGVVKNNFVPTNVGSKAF
# T2: human β-CGRP (1-37) (human, not fully specified; C-terminal amide; N-terminal biotin when captured on the chip)
# T2 construct: also called human β (1-37); β-CGRP (WT)
# T2 peptide: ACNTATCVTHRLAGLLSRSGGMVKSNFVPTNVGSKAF
# T3: human α-CGRP K35E (19-37) (human, not fully specified)
# T3 construct: the entry already carries the mutation
# T3 peptide: SGGVVKNNFVPTNVGSEAF-NH2
# T4: human α-CGRP fragment 1-36-COOH (human, free C-terminus (not amidated))
# T4 peptide: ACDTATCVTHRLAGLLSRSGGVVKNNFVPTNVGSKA
# T5: human α-CGRP fragment 26-37 (human)
# T5 peptide: NFVPTNVGSKAF-NH2
# T6: human α-CGRP fragment 8-37 (human, C-terminal amide)
# T6 peptide: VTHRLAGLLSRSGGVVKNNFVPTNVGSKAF
# T7: human α-CGRP P29A (19-37) (human)
# T7 construct: the entry already carries the mutation
# T7 peptide: SGGVVKNNFVATNVGSKAF-NH2
# T8: human α-CGRP K35A (19-37) (human, not fully specified)
# T8 construct: the entry already carries the mutation
# T8 peptide: SGGVVKNNFVPTNVGSAAF-NH2
# T9: rat β-CGRP (1-37) (rat, not fully specified; C-terminal amide; N-terminal biotin when captured on the chip)
# T9 construct: also called rat β (1-37)
# T9 peptide: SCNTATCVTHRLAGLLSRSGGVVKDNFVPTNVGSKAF
# T10: human α-CGRP K35M (19-37) (human, not fully specified)
# T10 construct: the entry already carries the mutation
# T10 peptide: SGGVVKNNFVPTNVGSMAF-NH2
# T11: rat α-CGRP (1-37) (rat, not fully specified; C-terminal amide; N-terminal biotin when captured on the chip)
# T11 construct: also called rat α (1-37); α-rat
# T11 peptide: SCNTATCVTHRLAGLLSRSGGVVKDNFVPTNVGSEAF
# B1: antibody G1 Fab fragment (Fab, V domains shown)
# VH: EVQLVESGGGLVQPGGSLRLSCAASGFTFSNYWISWVRQAPGKGLEWVAEIRSESDASATHYAEAVKGRFTISRDNAKNSLYLQMNSLRAEDTAVYYCLAYFDYGLAIQNYWGQGTLVTVSS
# VL: EIVLTQSPATLSLSPGERATLSCKASKRVTTYVSWYQQKPGQAPRLLIYGASNRYLGIPARFSGSGSGTDFTLTISSLEPEDFAVYYCSQSYNYPYTFGQGTKLEIK
# B2: Human adrenomedullin (1-52) (peptide)
# peptide: YRQSMNNFQGLRSFGCRFGTCTVQKLAHQIYQFTDKDKDNVAPRSKISPQGY-NH2
# modifications: ends and bridges not checked
# B3: Human amylin (1-37) (peptide)
# peptide: KCNTATCATQRLANFLVHSSNNFGAILSSTNVGSNTY-NH2
# modifications: ends and bridges not checked
# B4: human α-CGRP fragment 1-13-COOH (peptide)
# peptide: ACDTATCVTHRLA-OH
# modifications: ends and bridges not checked
# B5: Human calcitonin (1-32) (peptide)
# peptide: CGNLSTCMLGTYTQDFNKFHTFPQTAIGVGAP-NH2
# modifications: ends and bridges not checked
# B6: human α-CGRP fragment 1-19-COOH (peptide)
# peptide: ACDTATCVTHRLAGLLSRS-OH
# modifications: ends and bridges not checked
# Experiments:
# human α-CGRP 1-37 (WT) = target: T1, human α-CGRP 1-37 (WT); experiment: Biacore competition, 50 nM G1 Fab + 10 uM peptide over human α-CGRP on chip
# Description: (§1) Y axis represents percentage of binding blocked by the presence of the competing peptide compared with the binding in the absence of the competing peptide. […]
# human β-CGRP (1-37) = target: T2, human β-CGRP (1-37); experiment: as above
# Description: as §1
# Human calcitonin (1-32) = target: B5; experiment: as above
# Description: as §1
# [1] = target: B2; experiment: as above
# Description: as §1
# [2] = target: T3, human α-CGRP K35E (19-37); experiment: as above
# Description: as §1
# [3] = target: B6; experiment: as above
# Description: as §1
# [4] = target: T4, human α-CGRP fragment 1-36-COOH; experiment: as above
# Description: as §1
# [5] = target: T5, human α-CGRP fragment 26-37; experiment: as above
# Description: as §1
# [6] = target: T6, human α-CGRP fragment 8-37; experiment: as above
# Description: as §1
# [7] = target: T7, human α-CGRP P29A (19-37); experiment: as above
# Description: as §1
# [8] = target: human α-CGRP fragment 19-36-COOH (human, Table 4: not C-terminally amidated (19-36-COOH); paragraph 408 says amidated at the C-terminus); experiment: as above
# Description: as §1
# [9] = target: T8, human α-CGRP K35A (19-37); experiment: as above
# Description: as §1
# rat β-CGRP (1-37) = target: T9, rat β-CGRP (1-37); experiment: as above
# Description: as §1
# [10] = target: T10, human α-CGRP K35M (19-37); experiment: as above
# Description: as §1
# [11] = target: B4; experiment: as above
# Description: as §1
# Human amylin (1-37) = target: B3; experiment: as above
# Description: as §1
# rat α-CGRP (1-37) = target: T11, rat α-CGRP (1-37); experiment: as above
# Description: as §1
# antibody G1 Fab fragment = target: B1; experiment: Biacore competition: G1 Fab 50 nM pre-incubated 1 h with 10 uM competing peptide, flowed over N-biotinylated human α-CGRP on SA chip; blocked ligand human α-CGRP
# Description: Y axis represents percentage of binding blocked by the presence of the competing peptide compared with the binding in the absence of the competing peptide.
# All these peptides are amidated at the C-terminus.
binder,measurement,setting,value
B1,percentage of binding blocked,human α-CGRP 1-37 (WT),100%
same,percentage of binding blocked,human β-CGRP (1-37),100%
same,binding result,Human calcitonin (1-32),no binding (tested: 10 uM peptide)
same,binding result,[1],no binding (tested: 10 uM peptide)
same,percentage of binding blocked,[2],100%
same,binding result,[3],no binding (tested: 10 uM peptide)
same,percentage of binding blocked,[4],~40%
same,percentage of binding blocked,[5],100%
same,percentage of binding blocked,[6],100%
same,percentage of binding blocked,[7],100%
same,binding result,[8],no binding (tested: 10 uM peptide)
same,percentage of binding blocked,[9],100%
same,percentage of binding blocked,rat β-CGRP (1-37),100%
same,percentage of binding blocked,[10],100%
same,binding result,[11],no binding (tested: 10 uM peptide)
same,binding result,Human amylin (1-37),no binding (tested: 10 uM peptide)
same,percentage of binding blocked,rat α-CGRP (1-37),100%
B2,% Binding blocked,antibody G1 Fab fragment,0%
B3,% Binding blocked,antibody G1 Fab fragment,0%
B4,% Binding blocked,antibody G1 Fab fragment,0%
B5,% Binding blocked,antibody G1 Fab fragment,0%
B6,% Binding blocked,antibody G1 Fab fragment,0%
